# Experimental data reported in paper PMC2315677.
# Like-named read-outs stand apart in the source and are kept apart here.
# How the values were obtained:
# [1] = biological target: calreticulin (hamster (endogenous in CHO)) (UniProt Q8K3H7); test: co-IP
# [2] = biological target: calreticulin (hamster (endogenous in CHO)) (UniProt Q8K3H7); test: co-IP; remark: listed apart in the source
# Sequence of UniProt Q8K3H7 (Q8K3H7 18-417): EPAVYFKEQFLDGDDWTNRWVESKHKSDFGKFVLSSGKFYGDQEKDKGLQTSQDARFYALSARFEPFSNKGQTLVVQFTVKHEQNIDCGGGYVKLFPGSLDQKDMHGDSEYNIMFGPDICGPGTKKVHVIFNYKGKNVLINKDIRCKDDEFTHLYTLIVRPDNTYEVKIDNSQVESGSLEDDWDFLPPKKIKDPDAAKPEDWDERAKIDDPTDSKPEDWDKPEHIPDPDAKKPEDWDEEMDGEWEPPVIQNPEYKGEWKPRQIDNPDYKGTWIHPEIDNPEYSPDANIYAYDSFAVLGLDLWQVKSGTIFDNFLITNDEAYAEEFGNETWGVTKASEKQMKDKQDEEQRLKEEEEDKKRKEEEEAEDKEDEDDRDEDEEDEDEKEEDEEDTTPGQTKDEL
substance,measurement,setting,value
"influenza hemagglutinin (HA) wild type, transiently expressed in MI8-5 CHO cells (from UniProt P03437 17-566) (natural protein)",percent bound,[1],70%
same,percent bound,[2],16%
